Source: the DeepSol protein solubility set

Experiment: soluble on expression in E. coli; label from the status in PepcDB or PDB records

Soluble on expression in E. coli, not soluble:
MSLAPAEWVALNYVPFAERSLEVVVDLYQKTACHKAVVNEKVLQNIIKTLRVPLSLKYSCPSESTWKLAVSSLLRVLSIGLPVARQHASSGKFDSMWPELANTFEDFLFTKSIPPDNLSIQEFQRNENIDVEVVQLISNEILPYANFIPKEFVGQIMTMLNKGSIHSQSSSFTEAEIDIRLREEFSKMCFETLLQFSFSNKVTTPQEGYISRMALSVLLKRSQDVLHRYIEDERLSGKCPLPRQQVTEIIFVLKAVSTLIDSLKKTQPENVDGNTWAQVIALYPTLVECITCSSSEVCSALKEALVPFKDFMQPPASRVQNGEEGHHHHHH, MSLATLAELYEFLETKQDDSHLDSRFSYDAFLPVEQPKARLEILTWWKIERLIEDENCNFDKNFIVSYFDERVKATNNQLLKYRYNYFISLLTNDNRYAKQSIDALIAVINTLLPKDKEDYPHVAEKAIEVLMSLIKRVKYKIPEATDLIWGVLESDYGYRTKMVCIRLAKEKGFFPSRDAKKIVCLCKDLLSLVKDSWRENCCELGLFYSSKIQGEAKPYMNFFYEALGDMEMGQLVDPATAPNNIAIPWMNEDHSQKAMAFYQKAGLTQKRNRAELAFRENKKKMVMLHFKIEKKTDKKIVEYFGNLEKELLEGKLSWLLENLSCPVRFLFPSYEQIRLRMSASKSTVEKLGFENKIMDINGNSKDAGKDFDLRQKYGIWLMNIVRNTVINMILTAVNIKQLTYSKLRKWFLKNTCFGIQLEYTRSGQVVTTTWFSQIDYGVEALIKQYNRFLQGKPTDWRLPVDILSIRFEGILRDMVGDYGGCVTKVGRDNSISQALLDDLLREPCLLQIFRKEDIEFFEYVFTAKGYNIRNYVAHAFYIPQDYGMIEATLVFLCILRLTMFSPKSKTITANEGHHHHHH, MSLATMQDVATLAGVAPMTVSNCYRVPDKVHPQTLARVLEAAAKLGYTRNRIAGNLASGRSQVVGVLVPSLENSNFIGMIQGLEDRLHQLDHQLMLAVTPTADRELDSIRTFIERRIDGVVLTDVQHSRDTVDLLRNARLPTVETWSLKGPFIDMGVGFSLYDAAFDMTNLMIEAGYRRIGFAGFTPASTERFLERQRGFEDALRRANLRHDVHAYTEQSEGFAGGRITLNALLREEPELDGVFCGTDILAAGMIFECMRRGWRVPGRIGIAGYGNYQIASEITPKLTTVATPGYEMGVAAAEMLVGRLVGAAPAPVIRDVGYRLISGASEGHHHHHH, MSLATYFMYPSTGGLNTYIAVLKKTLEAQGYTVDVLARKPGPRLHLLSEEINMNTLRKMMSKPLNHYYKKHGQFSEPYIIKQELDRYVFELSSALLPIETYDLIHAQDVVSTRALARVKPAHIPLVTTIHGLYSEERFNRGVIQTKNDHSWKYSLAQEYIGALSADKVIVLTNWMRQRFQDQLNISSHHFETIPNGMFIEEFTNKLTNKTQVHIPESKKFTILCPARLVAEKDHRTLIDAVQLLKKEREDFICLLAGDGELREELEGYCREKEVQDVCLFLGNRNDIPELMNRSDLVVLPSLQENLPFTVMEAQVAGKPLIVSNAGGLPEMVHDGVTGRLFKKRDSRQLAFILKELMDHDEDRQLLGNNAKDWGRSQWSANTFCEKIKTVYAEALEQKKKEPRLMEFESVNRPTYHTLELHRFFEKSLWKKIDQCLPSNYTIPDPAFIKSLTTYEGHHHHHH

Soluble on expression in E. coli, soluble:
MSLAGAVALSLFDELDVVFGPAALADALFYRHSPALRFELEGGKTYIAQFLQAVDRARTVLNVAFAGMEAVTAVLGVWGDDPPAQLWATAEAALHELGIKLPAPELSASELPTPETRVLHGEEDTQVLFAFTLSTARLPELLWGSLAADLGIFPQLRGRLWLAAPELGLLACPYDSRGMDMIGPNTARLAQLYHQFGDWLLDHDRARMAEMLSPGSKEGHHHHHH, MSLAHVCSVILVRRSFDIHHEQQKISLHNESILLLDKNLADDFAFCSLDTRRLDIEELTVCHYLQNIRQLPRNLGLHSKDRLLINQSPPIQLVTAIFDSFNDPRVNSPILSKMLYLSCLSMFSHKKELIPLLFNSISTVSGKVERLISFDIAKRWYLRDIAERMYTSESLIKKKLQDENTCFSKILLASRMSMARRLLELRQIPLHTIAEKCGYSSTSYFINTFRQYYGVTPHQFSQHSPGTEGHHHHHH, MSLAKEPLIRVLLIEDDPMVQEVNRMFVEKLSGFTIVGTTATGEEGMVKTRELQPDLILLDIFMPKQDGLSFIKQIREQYIDVDIIAVTAANDTKTIKTLLRYGVMDYLVKPFTFERLKAALTQYEEMFRKMQKEAELSQDSLDEMIKQKQAQANMDDLPKGLHAHTLQQVIERLEELDEPKSAEEIGRDVGLARVTVRRYLNYLESVGQVEMDLTYGSIGRPIQTYKLKEGHHHHHH, MSLAKGGKRMRRTLAGIAAVLGLALGQQQVTLFWSGAITGPTSDAGAPYGAAVEDYCKWANERKLVPGVVFNCVVRDDQYNNANTQRFFEEAVDRFKIPVFLSYATGANLQLKPLIQELRIPTIPASMHIELIDPPNNDYIFLPTTSYSEQVVALLEYIAREKKGAKVALVVHPSPFGRAPVEDARKAARELGLQIVDVQEVGSGNLDNTALLKRFEQAGVEYVVHQNVAGPVANILKDAKRLGLKMRHLGAHYTGGPDLIALAGDAAEGFLWATSFYMAHEDTPGIRLQKEIGRKYGRPENFIESVNYTNGMLVASIAVEAIRRAQERFKRITNETVYQAIVGMNGPNAFKPGFAVSTKQGVEIDFTKSEHTGAEGLRILEAKGGRFVPVTEPFTSALFRKVHYGEGHHHHHH, MSLAKYKRVVLKLSGEALAGEQGYGIDPEVIQSIASQIKEIVELDVEVAVVVGGGNIWRGMAGSAKGMDRATADYMGMLATVMNSLALQDSLENLDVQSRVQTSIEMRQVAEPYIRRRAIRHLEKKRVVIFAAGTGNPYFSTDTTAALRAAEIEAEVILMAKNKVDGVYNAEPSVDVNAKKYTSISYLDVLKEGLAVMDSTASSLCMDNNIPLIVFSIMEEGNIKKAVLGEEIGTVVRGSNEGHHHHHH, MSLALDHVGIATEDAAGLAERFGAVFETQIAHSETFDGMYIIFLDMNGTYLELLEPVDDSDGPIATFLAQRDAGIHHIAIMTEDIATALENARAVGIECIDETPRQGAWGHQVAFLHPRSTGGVLCEFVQQEGHHHHHH, MSLANDDLQQRLDKGMYGTPLVNPEEQHKYMGTFRERCRLSMTVAEMKDAQNQKHLLEELAKHPEVTVLLNGEISSDLQSTYIKLLNQHGANFKIVNNFVENNPDSLGLLLAEKHAVDEPVIDVTEKYPQATETPKEEPTAKKSFWQKLFHSEGHHHHHH, MSLAPAAVLELPSPTGLHPVGRRTLHLVDRHRPDPWVPAARGRELMVSVSYPARSSGARPAAYMTRSEAQRLLELKGLAGVVPAATVAGTRTHAQADAPPAPGRFPLVLLSPGFSVPRTTLTALAVDVAARGYVVAAVDHAYESVGTEFPGGRVPPCVACDRVGVDVDEATVVRGRAADLSFVIDELTGRRSTGALARLIDPGRIGVAGHSIGGAAALATMAADRRVRAGVNLDGGFFVPDAGHRIGGRPFMMVGAEAVHGPGNTAGDWAATYDRLHGWKRWLTVSGAGHFSFTDIPWLAEQLGLPDPQVPLPGERGWYITRDYVGAFFDLHLRGLPQPLLHGPTSSHPEVGFHRPEGHHHHHH, MSLAPLVAMVGGGQLARMTHQAAIALGQNLRVLVTSADDPAAQVTPNVVIGSHTDLAALRRVAAGADVLTFDHEHVPNELLEKLVADGVNVAPSPQALVHAQDKLVMRQRLAAAGVAVPRYAGIKDPDEIDVFAARVDAPIVVKAVRGGYDGRGVRMARDVADARDFARECLADGVAVLVEERVDLRRELSALVARSPFGQGAAWPVVQTVQRDGTCVLVIAPAPALPDDLATAAQRLALQLADELGVVGVLAVELFETTDGALLVNELAMRPHNSGHWTIDGARTSQFEQHLRAVLDYPLGDSDAVVPVTVMANVLGAAQPPAMSVDERLHHLFARMPDARVHLYGKAERPGRKVGHINFLGSDVAQLCERAELAAHWLSHGRWTDGWDPHRASDDAVGVPPACGGRSDEEERREGHHHHHH, MSLAPSTYYDAKTRPPSARAQRDAVLGPALRQLWKDNYCVYGAHKLWKTARRAGYDVGRDQVARLMRAAGIQGVRRGKRVRTTKPDPVAARHPDLVKRKFTATAPNQLWVTDLTFVPTWAGVAYVCFIVDAHSRMIVGWRVASHMRTSMVLDALEMARWSRGTTLQNLICHSDAGSQFTSIRYGERLAEIGGVPSIGTVGDSFDNALAETVNGYYKAELIYGPARSGPWKTVEDVELATLSWVYWHNTSRLHSYLGDLPPAEFEAAFYDASRSGQPLVEIQEGHHHHHH, MSLAQKISATPAAGAQMTLAQADGIAFRELSFPEALKRAEVEDKLLFVDCFTTWCGPCKRLSKVVFKDSLVADYFNRHFVNLKMDMEKGEGVELRKKYGVHAYPTLLFINSSGEVVYRLVGAEDAPELLKKVKLGVESGGLSGLKKRYEAGDRDLAFICGYINALSAANREQEAGKVAADFLQGSEQKMLEDEDYFLVFYYYVHDVNSSAFQYAVNHKKEITDKFPRQAASLDRRLLEDWIAGSYAYLKVDESNHCTFDEQGLDAYVAKMKQMNVAEADMIGESLRLSRDGIMKQWDSFVKRGDKILASHTILGDEGHLLQWVNWLNKECADMSLREKAAQWCDKACEELIKKNEEIKKNLPPGAIPAISMVDHKGQLLQVAEKLRKLMQQSEGHHHHHH, MSLASSLHVLLEKIIKIGDLTVNSPGGSRTFGDGTGKKVVLNFTDEAAMQEIAADPALKLAEMYMEGRAKVAKGDIYDFLALVKGNTLSEALSFGMIWRGMARIIAARIKMRLPVNHNKSNVAHHYDLSAKLFDLFLDEDWQYSCAYFNPPDIGLYEAQVAKKRHIAAKLMTEPGQSVLEIGSGWGGMAMYIAESAGADVTGITLSEEQLRVSRDRAAKRGLAGNVRFELQDYRYLPASKKYDRIVSVGMFEHVGPTHYRDYFDKVAEVLDDKGVMVLHSIGQPYPALATNPFIEKYIFPGGYIPSLAEVLPAIQKSGLLVKDIEILPMHYAHTLRHWRERFVARKAEAVALYDERFFRMWEFYLAGSEMAFTHENFHIFQIQLAKDRDAVPHNRDYIAQNEAKLLEFEKTRPPLEKVSEGHHHHHH, MSLASVKEAAAVRPPLNQILFGPPGTGKTYEAIEKALEILDPSFLLQLGDDESNERRRALKRRYDELAKEGLVQFVTFHQSFSYENFVEGLSASSDPDTKQVRYEVEDGVFKELCESARTRLVRRSDDAPLELSGRRIWKLSLGDSITEGHIFEECMEKGLALMGFGNNADFSQCQSREDIQKMFAASGEPLSLGAYPITAIKTFVCQMKLGDLIVVSEGNLKFRAIGEITGDYQLLPRDSDTYSQARPVRWLRGYKPALPYGALMENRFSQMTVYELRAGSIDHDKFRELLKSECIATGADRPHVLIIDEINRGNVSRIFGELITLIEPSKRSGAAEALEVLLPYSKDPFSVPDNVYLIGTMNTADRSLAGLDIALRRRFDFVEMAPRPDKLTGVKVAEIDISAVLETMNRRIEVLLDREHRLGHAYFMSLENSNDLSRLSNIFRQQIIPLLQEYFFEDWQRIAWILNDHRKDERFRFIVPAPYSVDSLFGDTGQVAQDSKAWRMNEEAFHKPQSYLGIVGDGKEGHHHHHH, MSLATSAFCAISSAALADGGQTKLPLLELPGIEDRDYWVPGEVNVEGKLEAMQAVVGAKAVPFAGTQAEPIQIAMIYPSADTSDFWARNYIAMTKRLEELGIQFETTEFASRQIEHSLQSTYANQVVQDADLYDFVIFGPSELAIQADNIDKMAASEGFSTFVWAFHTPLKDLKNQPDGWFDFSSAAGALTMCDYMLGRLGNDVTMAMNRGIPGITDDQRSGDFKACVEEKGNWTTIYEHYGEYQREGGFEGTSLILQAYPEATVIHNANTAMAMGSVEAQISVGKEKEVFSTGWGGTGLELDAIRRGELDATPMRMGDDVGAATAEAIKAHLEGRSDELPFVFLGRITVAHDQMSAEEIDALEAEAFRFSGVGALEREGHHHHHH
